Measurements published in patent US9663815B2, “Cytosolically-active peroxidases as reporters for microscopy” (Massachusetts Institute of Technology, priority 2011, dated 2017).
Changes are numbered by the printed parent chain. In names and notes the source's numbering stands. Entries after “also recorded” stand apart in the source; their conditions may differ.

B1: wt APX: pea cytosolic ascorbate peroxidase (Pisum sativum), wild type, about 28 kD, dimeric (protein, listed as Pisum sativum)
chain: MGKSYPTVSPDYQKAIEKAKRKLRGFIAEKKCAPLILRLAWHSAGTFDSKTKTGGPFGTIKHQAELAHGANNGLDIAVRLLEPIKEQFPIVSYADFYQLAGVVAVEITGGPEVPFHPGREDKPEPPPEGRLPDATKGSDHLRDVFGKAMGLSDQDIVALSGGHTIGAAHKERSGFEGPWTSNPLIFDNSYFTELLTGEKDGLLQLPSDKALLTDSVFRPLVEKYAADEDVFFADYAEAHLKLSELGFAEA
B2: mAPX: double mutant K14D/E112K of pea APX (SEQ ID NO:1), monomeric (protein, listed as Pisum sativum)
chain: B1 chain with K14D, E112K

Key:
[1] = Gel filtration chromatography, oligomerization state; format: physicochemical
Method: APX, fluorescent protein, or miniSOG preparations were diluted to the desired concentrations using chilled (4° C.) PBS and then allowed to incubate at room temperature for 30 min to overnight. Samples (100 μL) were run on a Waters HPLC system over a Superdex 75 10/300 column (GE Healthcare) that had been pre-equilibrated in PBS, pH 7.4. Samples were run isocratically in PBS at a flow rate of 0.5 mL/min. Elution of APX was monitored at 280 nm and 405 nm (heme absorbance). Empower software (Waters) was used for analysis of elution profiles. Apparent MWs were determined against low molecular weight standards (GE). […] The apparent MW of the monomer for wt APX was assumed to be equal to the apparent MW of mAPX at 0.25 μM.
To investigate whether this localization is an artifact of APEX dimerization at high concentrations, the experiment was repeated using a tandem dimer of APX^W41F (two APX^W41F proteins linked with a short amino acid chain, denoted tdAPX) as well as miniSOG in place of APEX. Additionally, gel filtration chromatography (GFC) was used to assess the relative abundance of oligomers that formed at increasing tdAPX concentrations in vitro (5 μM, 20 μM, and 47 μM). Three different linker lengths (18, 23, and 28 amino acids) were tested. His6-tagged proteins were expressed and purified from E. coli. All three variants gave a major peak with an apparent molecular weight (MW) of ˜56 kDa, as expected for tdAPX. The apparent MW of the major peak remained constant as a function of concentration for all three constructs. […] Therefore, the 28 amino acid linker variant was selected as the optimized tandem dimer to be used in EM experiments.

[2] = Guaiacol activity assay (Michaelis-Menten kinetics); format: biochemical; details: guaiacol as substrate, purified enzyme
Method: Data points represent the mean±standard deviation of 2-3 independent measurements. Initial rates are shown as a function of guaiacol concentration. H2O2 concentration was 90 μM, and enzyme concentration was 20 nM in all trials. Oxidation to tetraguaiacol was monitored by absorbance at 470 nm (ε470=22×10^3 M^−1 cm^−1)^2.
High activity toward guaiacol generally correlated well with robust polymerization of DAB in vitro. Guaiacol assays were performed on a Nanodrop 2000c UV-vis spectrophotometer (Thermo Scientific) using its cuvette reader. HRP (Sigma) was prepared as a 10 μM stock in PBS, flash frozen and stored at −80° C., and thawed immediately before use. Guaiacol peroxidase activity was measured according to the protocol of Lad et. al.^35 Oxidation to tetraguaiacol was monitored by absorbance at 470 nm (ε470=22×10^3 M^−1 cm^−1). Kcat and KM were calculated by nonlinear regression fitting to the Michaelis-Menten equation using OriginPro (OriginLab Corporation). All values are reported as the mean±standard deviation for 2-3 independent Michaelis-Menten fittings, with each fitting using at least 5 values of substrate concentration ranging between 0.25 and 30 mM.
In order to improve the performance of mAPX in mammalian cells, monomeric APX was engineered with improved activity toward DAB in the hope that faster kinetics could compensate for diminished heme binding. The substrate binding site of APX was compared to that of HRP, which has faster kinetics and broader aromatic substrate tolerance (Henriksen, et. al., Journal of Biological Chemistry 274, 35005-35011 (1999)). In order to make APX more HRP-like, seven mutants of APX were designed that incorporated mostly aromatic residues into the active site (FIG. 5a). A colorimetric assay was employed using guaiacol, a prototypical aromatic peroxidase substrate, to determine Michaelis-Menten parameters (Kumar, et. al., Journal of Cell Science 108, 3725-3734 (1995); Henriksen, et. al., Journal of Biological Chemistry 274, 35005-35011 (1999)) (FIG. 5b and FIG. 10). […]

HEK cells = test: DAB staining of transfected cells (brightfield); format: cell-based; details: for DAB staining activity in mitochondrial matrix: mitochondrial matrix-targeted constructs, HEK cells
Method: Next, the activity of wt APX and mAPX was compared in mammalian cells.
To generate a monomeric APX with improved activity, the two mAPX mutations (K14D/E112K) were added to each of the activity-enhanced mutants. […] The sextuple mutant (K14D, E112K, W41F, D133A, T135F, K136F=mAPX−FFAF), was compared to mAPX+W41F within cells. HEK cells were transfected with constructs targeted to the mitochondrial matrix (Table 3), while COS-7 cells were transfected with constructs fused to the C-terminus of connexin 43 (Table 3). After fixation, the cells were treated with DAB and H2O2 to generate DAB polymer. […] After fixation, cells were stained with anti-Flag (for matrix) or anti-myc (for connexin) antibody to visualize peroxidase expression levels. […] Therefore mAPX+W41F (K14D/E112K/W41F) was selected, denoted as “APEX” (for Enhanced APX), as the optimized reporter for subsequent experiments.
A solution of 4% formaldehyde (freshly depolymerized from paraformaldehyde) with 2% glutaraldehyde in 10 mM phosphate buffered saline (PBS) was added to cells 24 hours after transfection. Cells were treated for 3 min at room temperature, then 30 min on ice. Cells were then washed 5×2 min using ice cold 10 mM PBS. Cells were blocked with 20 mM glycine for 5 min on ice. Cells were then washed 5×2 min with ice-cold 10 mM PBS. Cells were then treated with an ice-cold solution of DAB (0.5 mg/mL) and H2O2 (0.03%) in 10 mM PBS for 20 min. Cells were then washed 5×2 min with ice-cold 10 mM PBS. Cells were treated with 2% OsO4 in ice-cold 10 mM PBS for 30 min, then washed 5×2 min with ice-cold distilled deionized water. Cells were then placed under ice-cold 2% aqueous uranyl acetate for 24 hours.
Any cell displaying detectable GFP fluorescence was considered transfected. Contact sites between neighboring transfected cells were identified using DIC imaging. Gap junctions were identified as lines of GFP fluorescence unambiguously overlaying with the plasma membrane of two transfected cells based on DIC. DAB stain intensity for APX-NES variants was analyzed using SlideBook. Transfected cells were identified by nuclear YFP fluorescence. In each transfected cell, a representative DAB-stained region was encircled, and its average brightfield intensity was calculated. Background intensity, determined for each field of view by encircling a representative region in the cytosol of an untransfected cell, was subtracted out. The bar graph in FIG. 2c represents mean data from >60 transfected cells.

Molecule	oligomerization state ([1]; PBS pH 7.4)	activity in vitro (guaiacol) [2]	DAB staining activity in mitochondrial matrix (HEK cells)	oligomerization state ([1]; PBS pH 7.4, listed as APX K14D/E112K)	activity toward DAB (DAB stain) (HEK cells; expressed throughout the cytosol via NES fusion)
B1	predominantly dimeric at 0.25 μM; also recorded: runs as a dimer	equally active	comparably active	–	–
B2	comparable to EYFP and much more monomeric than both wt APX and mEos2	equally active	comparably active	most monomericity	less active than wt APX
